Reference: article PMC4826287 (Journal of molecular biology, 2015)
Each block holds one molecule with its values, some of them ahead of it.

T1: Gli3^1-90 (90-residue N-terminal Gli3 fragment), His tag cleaved (UniProt P10071 1-90)
T1 sequence (looked up): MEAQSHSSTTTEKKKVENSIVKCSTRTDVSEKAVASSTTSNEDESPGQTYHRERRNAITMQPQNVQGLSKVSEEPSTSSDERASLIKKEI

B1: His6-Gli3^1-90 (N-terminal His6 tag left on) (domain or fragment, UniProt P10071 1-90, looked up)
chain: T1 sequence (looked up)
B2: Gli3^1-90: 90-residue N-terminal Gli3 fragment, recombinant, intrinsically disordered (protein)
chain: T1 sequence (looked up)
modifications: left off: His6, N-terminal, cleaved
B3: SPOP^MATH (MATH domain of Speckle-type POZ protein, residues 28-166) (domain or fragment, UniProt O43791 28-166, looked up)
chain: KVVKFSYMWTINNFSFCREEMGEVIKSSTFSSGANDKLKWCLRVNPKGLDEESKDYLSLYLLLVSCPKSEVRAKFKFSILNAKGEETKAMESQRAYRFVQGKDWGFKKFIRRDFLLDEANGLLPDDKLTLFCEVSVVQD

How the values were obtained:
[1] = target: B3; assay: BLI
[2] = target: T2, SPOP^MATH-BTB (SPOP construct encompassing residues 28-337) (UniProt O43791 28-337); assay: BLI
[3] = target: SPOP^MATH-BTB-BACK (SPOP construct encompassing residues 28-359) (UniProt O43791 28-359); assay: BLI
SPOP^MATH = SPOP^MATH (Homo sapiens, UniProt O43791); assay: Sedimentation velocity AUC, stoichiometry of Gli3^1-90/SPOP^MATH complex; type: binding; conditions: SV AUC, excess SPOP^MATH (Gli3^1-90 156 μM / SPOP^MATH 525 μM), pH 6.0, 20 °C, size-and-shape distribution analysis
[4] = target: B3; assay: fluorescence polarisation
[5] = target: T2, SPOP^MATH-BTB (SPOP construct …); assay: fluorescence polarisation
[6] = target: B3; assay: fluorescence polarisation; remark: listed apart in the source
[7] = target: T1, Gli3^1-90 (90-residue N-terminal Gli3 …); assay: AUC

Molecule: B1
Kd [1]: 21 µM
Kd [2]: 28 µM
Kd [3]: 1.5 µM

Molecule: B2
number of MATH domain molecules bound to 1 Gli3^1-90 molecule (SPOP^MATH): up to 3

Kd [4]: ~6 µM
Kd [5]: ~6 µM
Molecule: ENLACDEVTSTTSSST (not fully specified; fluorescein on the N-terminus; C-terminal amide) [F-pPuc (N-terminally fluorescently labeled Puc peptide)]

Kd [6]: 560 µM
Molecule: Ac-KVSEEPSTSSDERA-NH2 [SBM3 (Gli3 peptide, SPOP-binding motif 3)]

Kd [6]: ~4100 µM
Molecule: Ac-MEAQSHSSTTTEKK-NH2 [SBM1 (Gli3 peptide, SPOP-binding motif 1)]

Kd [6]: 7.7 µM
Molecule: Ac-ENLACDEVTSTTSSST-NH2 [pPuc (peptide derived from the Drosophila melanogaster protein Puckered, residues 91-106)]

Kd [6]: 80 µM
Molecule: Ac-EKAVASSTTSNEDES-NH2 [SBM2 (Gli3 peptide, SPOP-binding motif 2)]

Molecule: B3
stoichiometry N [7]: ≤ 3 SPOP^MATH per Gli3^1-90
